Laboratory results taken from the supplement of paper PMC10126150.
± gives the standard deviation of the averaged measurements.

Tested on: ATP
Test: switch fluorescence ratio, 500 uM ATP over buffer (Cy3 cluster intensity, sum of 5 cycles each) (fold (ratio)); higher = stronger signal-on switching upon ATP binding; sequences stand for … in TCGTCGGCAGCGTCAGATGTGTATAAGAGACAGTTTTTTTTTTTTTTTTTTTTTTTTT…TC
Details: aptamer strand: ATP DNA aptamer (quencher-CACCTGGGGGAGTATTGCGGAGGAAGG + anchor), 100 nM annealed; ATP concentration: 500 uM
In short: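 Per cluster, summed Cy3 intensity from the target cycles was divided by that from the buffer cycles to give the fluorescence ratio, then averaged per switch-domain sequence. Clusters outside 100-1000 RFU were excluded. The Cy3-labelled switching-strand clusters, on a modified Illumina MiSeq flow-cell, were annealed to 100 nM quencher-labelled ATP aptamer and imaged in selection buffer, then after 15 min with 500 uM ATP at 22 °C, for five cycles with NaOH stripping and re-annealing between them.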
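Further: ATP exposure 15 min at 22 °C before imaging.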

| Sequence | switch fluorescence ratio |
| --- | --- |
| AACTTCCGCA | 1.29 ± 0.038 |
| AAATATCTGC | 1.04 ± 0.029 |
| TTGACGTGTG | 0.961 ± 0.01 |
| AAGTAACGTC | 1.041 ± 0.01 |
| AAGTGATATA | 1.01 ± 0.017 |
| GGGTAGGGTA | 0.9864 ± 0.0082 |
| TTACATAGGG | 1.019 ± 0.0079 |
| TGATCATGTT | 0.984 ± 0.037 |
| GGCAAAGGGT | 1.06 ± 0.056 |
| AACAGGACTG | 1 ± 0.036 |
| GTTAACCGGA | 1.01 ± 0.012 |
| AGGGGAAGGA | 1 ± 0.049 |
| TTTTGGCTTT | 1 ± 0.034 |
| TGTTTTCGT | 1.02 ± 0.011 |
| GGTTTTAGTG | 0.967 ± 0.037 |
| TAGTCATATC | 1.01 ± 0.032 |
| TATGGGATTA | 1.04 ± 0.064 |
| TGCGAATGAG | 0.993 ± 0.0049 |
| ACGCGCGGAA | 1.008 ± 0.003 |
| TATTGAATTC | 1.01 ± 0.016 |
| TGTTTCGACG | 0.986 ± 0.038 |
| CAAAATTTGC | 0.9841 ± 0.0061 |
| GACTACCCCT | 1.234 ± 0.011 |
| ATCTTTGCTA | 1 ± 0.036 |
| ACCCTCGCAG | 1.748 ± 0.0058 |

| Sequence | switch fluorescence ratio |
| --- | --- |
| GCTCTCAGGT | 1.12 ± 0.043 |
| TCGATCCAAC | 1.064 ± 0.0065 |
| CTAGCGGTCG | 0.997 ± 0.0051 |
| CATTATTTTT | 1.01 ± 0.024 |
| TCCGGGTTTT | 0.963 ± 0.019 |
| AGAATTATAT | 0.973 ± 0.023 |
| AAAGAGTGAA | 0.9989 ± 0.009 |
| AAGTTGGCGC | 1.01 ± 0.037 |
| ACTTTGGGCA | 0.99606 ± 0.00098 |
| GGTTGATTTA | 1.036 ± 0.0037 |
| TTGCGAGTTG | 1 ± 0.021 |
| TATTAATTAT | 1.01 ± 0.022 |
| GGGGCTGTTG | 0.966 ± 0.024 |
| AAGTAATGGA | 1.04 ± 0.06 |
| TATTTGGGCA | 1.01 ± 0.041 |
| ACGAATAAGG | 1.03 ± 0.021 |
| TTTGTTTTAT | 1 ± 0.034 |
| ATTATGGCTG | 1.07 ± 0.011 |
| TCTAACGCTG | 1.13 ± 0.056 |
| CGGGATTAGT | 0.99 ± 0.031 |
| GGTATGACCC | 1.0394 ± 0.00014 |
| AAAATAAATG | 1.01 ± 0.017 |
| AGGGGGCAAT | 1.11 ± 0.18 |
| GGCGGCTGAG | 1 ± 0.067 |
| TAGGGCCAGC | 1.04 ± 0.033 |

| Sequence | switch fluorescence ratio |
| --- | --- |
| CGTCTAAGGT | 0.98 ± 0.044 |
| CATGGTTGCG | 0.987 ± 0.022 |
| TTGTTGTCGG | 0.956 ± 0.013 |
| CATTGTGACT | 1 ± 0.016 |
| GGGGGGGTGA | 1.01 ± 0.038 |
| GGACTTGGTC | 0.972 ± 0.019 |
| AGTTGGAAAG | 0.977 ± 0.013 |
| TTCATTAATC | 0.97104 ± 0.00025 |
| AAGTTCGGGA | 1 ± 0.029 |
| TGTGTGGGAC | 0.988 ± 0.025 |
| TTGGACATTT | 0.999 ± 0.013 |
| ACATGGGCT | 1.003 ± 0.0088 |
| TAAAGGATCC | 1.02 ± 0.041 |
| TTTTTAGCTG | 1.04 ± 0.058 |
| TTACCTTTTT | 1.02 ± 0.013 |
| GCACACCAGT | 1.04 ± 0.014 |
| GGAAAACTGG | 1.01 ± 0.0017 |
| TATATTACCA | 1.01 ± 0.051 |
| TACTTTGGGG | 0.989 ± 0.022 |
| GTCGGGGGGA | 0.993 ± 0.014 |
| GACTTGGGCG | 0.957 ± 0.084 |
| TTTGGATGAC | 1.01 ± 0.063 |
| TCCTTCAACT | 1.08 ± 0.045 |
| ACGGTCTGGC | 1.02 ± 0.035 |
| TGGGTTGTTA | 0.9852 ± 0.0095 |

| Sequence | switch fluorescence ratio |
| --- | --- |
| TCTCTGGAGA | 1.04 ± 0.011 |
| TATCAGTTGT | 1.03 ± 0.013 |
| AGGCCGGCTG | 0.96 ± 0.066 |
| AATATTTAAC | 0.9828 ± 0.0024 |
| CGGAGGCTTG | 1.01 ± 0.061 |
| CGGACCAGCG | 0.965 ± 0.0086 |
| TTTTTGTCGT | 0.983 ± 0.025 |
| CAGAGTCTGT | 0.999 ± 0.022 |
| CGGGGTGGTA | 0.9873 ± 0.0069 |
| TCGAGTAAGG | 1.18 ± 0.28 |
| TAAAAGGACC | 1.09 ± 0.023 |
| GGCTTATGGA | 0.98 ± 0.038 |
| ATTCCTCTGG | 1.2 ± 0.018 |
| ATGGGGACTA | 1.0122 ± 0.00084 |
| CTTGGGGATT | 0.99 ± 0.044 |
| ACGAAGGGTC | 0.9941 ± 0.0098 |
| CTGTGGGCGC | 1.01 ± 0.027 |
| GCCCTCCTGC | 1.16 ± 0.078 |
| TGGCGTTTTG | 0.9687 ± 0.0069 |
| AGACTCTCG | 1.02 ± 0.098 |
| TTCCCCCTTT | 1.45 ± 0.58 |
| GACATTTTTA | 0.975 ± 0.022 |
| AAACTGGTAT | 0.982 ± 0.02 |
| GAGTACTTTG | 0.9847 ± 0.0015 |
| GAAATGCTCT | 1.01 ± 0.033 |

| Sequence | switch fluorescence ratio |
| --- | --- |
| CCGCCTTGGG | 1.09 ± 0.029 |
| CGCTTAACCG | 1.04 ± 0.043 |
| TTTAGCAACA | 1.04 ± 0.047 |
| ACTGAAGCAT | 1.17 ± 0.021 |
| CAGTTGTAAA | 0.9699 ± 0.0067 |
| CGATTTCTCT | 0.973 ± 0.04 |
| ATATTTGTTT | 0.993 ± 0.022 |
| GTGTTTGGTT | 1.01 ± 0.053 |
| AGGTTAGTCG | 1.01 ± 0.032 |
| GATTGATAGG | 0.99961 ± 0.00019 |
| ATTTATGATA | 0.99 ± 0.008 |
| TTTGGATGGC | 1.02 ± 0.057 |
| TTTACGGGAA | 1.05 ± 0.007 |
| GGAAACTCTC | 1 ± 0.015 |
| GTGGTTAGGG | 1.01 ± 0.041 |
| GTTGTAGACA | 0.9847 ± 0.0048 |
| TTTTCAGATT | 0.9601 ± 0.0086 |
| GAGGCCGGGG | 0.9956 ± 0.0026 |
| AGGGGGTATG | 0.983 ± 0.014 |
| ATATGTTTGG | 1.01 ± 0.018 |
| GGTTCTAAGA | 0.98129 ± 0.00096 |
| GAGGGGTGGT | 0.987 ± 0.029 |
| GAGGCTTAAG | 1.01 ± 0.019 |
| ATCACAAATA | 1.02 ± 0.024 |
| AAACTTAATC | 1.04 ± 0.05 |

| Sequence | switch fluorescence ratio |
| --- | --- |
| GGGAAGTCGG | 0.9824 ± 0.0094 |
| CGGGTAAAGG | 0.9441 ± 0.0076 |
| CTTAAAAGTA | 0.972 ± 0.018 |
| GTTTTTAGAC | 1.03 ± 0.014 |
| TTATAAAAAA | 1.07 ± 0.079 |
| ATGTAAGGCG | 1.014 ± 0.0076 |
| CCTTGCCCTT | 1.03 ± 0.014 |
| CGAAGATTTG | 1 ± 0.015 |
| TCTAACTTTT | 1.01 ± 0.033 |
| TGGGTGGTCT | 0.9972 ± 0.0054 |
| GGTACTCGGG | 0.961 ± 0.013 |
| GAGGGGCCGG | 0.972 ± 0.057 |
| ATACGTTTCG | 0.998 ± 0.03 |
| TGGAGGGGGC | 1.01 ± 0.046 |
| TCTAGAGCGG | 1.02 ± 0.029 |
| CAACCTGCGA | 1.4175 ± 0.0011 |
| GGTTTGTCGT | 0.957 ± 0.04 |
| GCAAGTGCAC | 0.978 ± 0.04 |
| TGGAGGGAGG | 1.01 ± 0.023 |
| ACCTTGCACA | 1.252 ± 0.012 |
| GGACACTACC | 1.25 ± 0.036 |
| AATTTGGCTG | 1.22 ± 0.29 |
| TCGGAATCTG | 1 ± 0.1 |
| GGAGCTGTCG | 0.9774 ± 0.0094 |
| AGTTGGGTCA | 0.993 ± 0.044 |

| Sequence | switch fluorescence ratio |
| --- | --- |
| GGTGCTGCTA | 0.984 ± 0.019 |
| CATTTGGCGT | 0.972 ± 0.029 |
| TCTTTAATTT | 0.985 ± 0.026 |
| TATCAGCATG | 1.01 ± 0.033 |
| CAAGATTGCC | 1 ± 0.034 |
| TGATGGCCGG | 1.05 ± 0.04 |
| GTATGGGTGG | 1 ± 0.024 |
| CTTGAATGTG | 1 ± 0.013 |
| CTCTATTGAT | 0.997 ± 0.017 |
| AGAATGGGAA | 1 ± 0.019 |
| GCTAGATTTA | 0.987 ± 0.021 |
| CAAGGACATA | 1.07 ± 0.038 |
| TTTGTAGGGA | 1.02 ± 0.028 |
| CCTGTTTGAG | 1.04 ± 0.11 |
| CGGTCTCCGG | 1.03 ± 0.012 |
| GGGTATTGTT | 0.995 ± 0.024 |
| TATATGATTA | 0.973 ± 0.016 |
| TGCACCGAGT | 1.04 ± 0.018 |
| TCTTTTGTG | 1.13 ± 0.2 |
| TTTTGGAAAG | 0.987 ± 0.013 |
| GTCTGGCTAC | 1.22 ± 0.061 |
| TCTTAGTTTG | 0.986 ± 0.015 |
| TGAAATTGTG | 1.01 ± 0.022 |
| CAGGTAAATG | 0.9961 ± 0.0027 |
| GGGTATGTCC | 0.989 ± 0.026 |

| Sequence | switch fluorescence ratio |
| --- | --- |
| TGTGGCACAC | 1.01 ± 0.018 |
| TTCGTTAAAG | 0.9612 ± 0.002 |
| TGAGCATGCT | 1 ± 0.021 |
| ACATGAGCGT | 0.996 ± 0.016 |
| TTTCTTGCCA | 1.02 ± 0.048 |
| GCTGATGGGC | 1.05 ± 0.044 |
| AGGGTGTGAC | 1.01 ± 0.036 |
| GTTTTAAAAG | 0.979 ± 0.01 |
| AGGTTCGG | 0.9937 ± 0.0069 |
| TTGTAAAATT | 0.99 ± 0.027 |
| GCAGGGTGGG | 1.02 ± 0.028 |
| GGTTTCCCTG | 0.9984 ± 0.0033 |
| ATTGAAAGAG | 1.21 ± 0.28 |
| CAGTGCACTC | 0.9918 ± 0.0014 |
| TTTAGTCATG | 0.977 ± 0.035 |
| TCAACGCCCC | 1.28 ± 0.055 |
| ATTACGTGTA | 1.012 ± 0.0039 |
| TGTTACGGTG | 1.002 ± 0.0031 |
| TTTTTGGCTA | 1 ± 0.021 |
| CCAGCTACGG | 1.06 ± 0.053 |
| CAGGCATAGG | 1.06 ± 0.033 |
| AGCCATGATG | 0.979 ± 0.036 |
| TTTATGTTT | 0.984 ± 0.019 |
| AGTAAAAATG | 0.982 ± 0.027 |
| GATAGGGAGG | 0.993 ± 0.016 |
